The numbers were not newly measured in publication PMC5326574, which cites them from elsewhere.

For series [1], the target named is ERK2 (Homo sapiens) (UniProt P28482). The experiment in a line: NMR.
Series [2] has as its target Prolactin (Homo sapiens) (UniProt P01236). Briefly: SPR.
In series [3] the target is Prolactin (second site) (Homo sapiens) (UniProt P01236).

Chain of UniProt P28482 (P28482 2-360): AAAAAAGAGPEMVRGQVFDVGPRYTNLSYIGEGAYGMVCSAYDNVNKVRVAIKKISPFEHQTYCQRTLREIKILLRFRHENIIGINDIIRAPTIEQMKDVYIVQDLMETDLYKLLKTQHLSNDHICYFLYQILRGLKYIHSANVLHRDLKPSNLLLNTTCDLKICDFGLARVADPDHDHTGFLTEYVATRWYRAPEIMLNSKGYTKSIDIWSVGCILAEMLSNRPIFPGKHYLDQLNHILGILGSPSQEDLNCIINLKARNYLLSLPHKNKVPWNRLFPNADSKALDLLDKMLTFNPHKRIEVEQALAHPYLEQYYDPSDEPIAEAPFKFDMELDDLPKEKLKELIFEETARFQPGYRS

Turning to “NHE1 C-terminal distal tail (NHE1cdt) (from UniProt P19634)”, in series [1], the Kd (in general, a measure of binding affinity in units of concentration) is 30 µM.
As to “Prolactin receptor ECD (from UniProt P16471)”, the Kd in series [2] is 0.006 µM; in series [3], 33 µM.
